From US20170247475A1 (Boehringer Ingelheim, published 2017) come the findings set out here.

Test [1] concerns the target VEGF. The experiment in a line: cell-based or functional assay.
In test [2] the target is VEGF. The experiment in a line: cell-based or functional assay. The source holds these as a separate data set.
Test [3] concerns the target T1, recombinant human VEGF165 (human, UniProt P15692-4 27-191).
T1 construct: also called hVEGF165; rhVEGF165
The experiment in a line: binding ELISA, coated rhVEGF165. (In general: In an ELISA, binding on a coated surface is turned into a signal by an enzyme label.)
Target sequence in this assay (P15692 other isoform, or with tags, fused parts or gaps limits assumed): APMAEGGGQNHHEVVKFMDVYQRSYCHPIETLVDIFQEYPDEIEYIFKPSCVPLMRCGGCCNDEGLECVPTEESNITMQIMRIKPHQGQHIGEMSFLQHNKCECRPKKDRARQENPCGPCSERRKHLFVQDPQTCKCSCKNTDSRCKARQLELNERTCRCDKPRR

Test [4] deals with T2, recombinant mouse VEGF164 (mouse, UniProt Q00731-2 27-190).
T2 construct: biotinylated in the mVEGFR2 AlphaScreen; also called rmVEGF164; mVEGF164
T2 sequence (looked up): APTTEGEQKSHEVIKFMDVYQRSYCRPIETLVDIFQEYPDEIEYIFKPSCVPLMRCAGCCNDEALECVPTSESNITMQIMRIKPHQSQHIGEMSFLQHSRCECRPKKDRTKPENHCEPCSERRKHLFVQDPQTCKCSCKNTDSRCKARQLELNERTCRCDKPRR
Description: binding ELISA, coated rmVEGF164. As to the method:
(§1) Cross-reactivity to mouse VEGF164 is determined using a binding ELISA. […] Wells are blocked with a casein solution (1% in PBS). […] A mouse VEGF164 reactive mAb is included as positive control.

The target of test [5] is T1, recombinant human VEGF165. The experiment in a line: VEGF/VEGFR1 competition AlphaScreen. As to the method: (§2) Finally, streptavidin donor beads (20 μg/ml) are added and after 1 hour of incubation in the dark, fluorescence is measured on the Envision microplate reader.
Target sequence in this assay (P15692 other isoform, or with tags, fused parts or gaps limits assumed): as the sequence (P15692 other isoform, or with tags, fused parts or gaps limits assumed) above
The target in test [6] is T1, recombinant human VEGF165. The experiment in a line: VEGF/VEGFR2 competition AlphaScreen. On the procedure:
as §2
Target sequence in this assay (P15692 other isoform, or with tags, fused parts or gaps limits assumed): as the sequence (P15692 other isoform, or with tags, fused parts or gaps limits assumed) above

In a further test the target is T3, human VEGF-C (human, UniProt P49767 103-227).
T3 construct: also called hVEGF-C
T3 sequence (looked up): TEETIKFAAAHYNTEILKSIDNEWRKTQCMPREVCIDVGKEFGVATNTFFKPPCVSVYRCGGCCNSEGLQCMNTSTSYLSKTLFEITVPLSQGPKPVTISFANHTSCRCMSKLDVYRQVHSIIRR
Description: binding ELISA on coated VEGFC. As to the method: (§3) Binding to VEGFB, VEGFC, VEGFD and PIGF is assessed via a solid phase binding ELISA. In brief, VEGFB, VEGFC, VEGFD and PIGF (R&D Systems, Minneapolis, Minn., USA) are coated overnight at 4° C. at 1 μg/mL in a 96-well MaxiSorp plate (Nunc, Wiesbaden, Germany). Wells are blocked with a casein solution (1% in PBS). […] As positive controls serial dilutions of the appropriate receptors are taken along and detected with horseradish peroxidase (HRP)-conjugated goat anti-human IgG, Fc specific antibody (Jackson Immuno Research Laboratories Inc., West Grove, Pa., USA) and a subsequent enzymatic reaction in the presence of the substrate TMB (3,3′,5,5′-tetramentylbenzidine) (Pierce, Rockford, Ill., USA).

Test [7] has as its target T1, recombinant human VEGF165. Description: VEGF165/hVEGFR1-Fc competition ELISA.
Target sequence in this assay (P15692 other isoform, or with tags, fused parts or gaps limits assumed): as the sequence (P15692 other isoform, or with tags, fused parts or gaps limits assumed) above
In a further test the target is T4, human PIGF (human, UniProt P49763-2 21-149, limits assumed).
T4 construct: also called hPIGF; PLGF
T4 sequence (looked up): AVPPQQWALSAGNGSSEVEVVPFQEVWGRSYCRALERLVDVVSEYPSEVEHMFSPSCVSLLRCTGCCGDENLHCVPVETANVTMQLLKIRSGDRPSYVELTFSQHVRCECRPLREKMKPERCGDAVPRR
Description: binding ELISA on coated PIGF. As to the method: as §3

The target in test [8] is T1, recombinant human VEGF165. The experiment in a line: hVEGF165/hVEGFR2-Fc competition ELISA.
The target in the next test is T5, human VEGF-B (human, UniProt P49765-2 22-188, limits assumed).
T5 construct: also called hVEGF-B
T5 sequence (looked up): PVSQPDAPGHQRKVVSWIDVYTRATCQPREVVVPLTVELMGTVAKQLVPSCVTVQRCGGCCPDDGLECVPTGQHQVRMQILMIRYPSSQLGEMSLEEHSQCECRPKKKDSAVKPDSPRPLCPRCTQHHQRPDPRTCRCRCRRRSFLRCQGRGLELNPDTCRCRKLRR
Description: binding ELISA on coated VEGFB. As to the method:
as §3

In the next test the target is T6, human VEGF-D (human, UniProt O43915 93-201).
T6 construct: also called hVEGF-D
T6 sequence (looked up): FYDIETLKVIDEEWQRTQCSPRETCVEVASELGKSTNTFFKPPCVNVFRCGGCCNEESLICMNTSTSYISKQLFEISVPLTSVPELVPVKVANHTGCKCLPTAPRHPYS
The experiment in a line: binding ELISA on coated VEGF D. As to the method: as §3

Test [9] has as its target T1, recombinant human VEGF165. Description: VEGF165/hVEGFR1-Fc competition AlphaScreen. On the procedure: as §2
Target sequence in this assay (P15692 other isoform, or with tags, fused parts or gaps limits assumed): as the sequence (P15692 other isoform, or with tags, fused parts or gaps limits assumed) above
(Alpha assays give light when donor and acceptor beads are brought close together.)

The target of test [10] is T1, recombinant human VEGF165. The experiment in a line: hVEGF165/hVEGFR2-Fc competition AlphaScreen. As to the method:
as §2

For test [11], the target named is T1, recombinant human VEGF165. Description: SPR Biacore T100, hVEGF165 on chip, Two State Reaction model. As to the method:
(§4) Samples are injected for 2 min and allowed to dissociate up to 20 min at a flow rate of 45 μI/min. In between sample injections, the chip surface is regenerated with 100 mM HCl. HBS-EP+(Hepes buffer pH7.4+EDTA) is used as running buffer. Binding curves are fitted using a Two State Reaction model by Biacore T100 Evaluation Software v2.0.1.
(§5) ^{(a)}KD = kd1/kₐ₁ * (kd2/(kd2 + kₐ₂)) ^{(b)}Curves are fitted using a Two State Reaction model by Biacore T100 Evaluation Software v2.0.1
Target sequence in this assay (P15692 other isoform, or with tags, fused parts or gaps limits assumed): as the sequence (P15692 other isoform, or with tags, fused parts or gaps limits assumed) above

Test [12] has as its target T1, recombinant human VEGF165. The experiment in a line: ka1; SPR Biacore T100, hVEGF165 on chip, Two State Reaction model. On the procedure:
as §4, §5

Test [13] addresses T1, recombinant human VEGF165. Description: kd1; SPR Biacore T100, hVEGF165 on chip, Two State Reaction model. On the procedure:
as §4, §5
A general note: In SPR one partner is held on a chip, and binding of the other changes the refractive index at the surface.

For test [14], the target named is T1, recombinant human VEGF165. Description: SPR Biacore T100, Two State Reaction model; KD = kd1/ka1 * (kd2/(kd2 + ka2)). As to the method:
as §4, §5

In test [15] the target is T7, recombinant human VEGF121 (human, UniProt P15692-9 27-147).
T7 construct: also called rhVEGF121; hVEGF121
T7 sequence (looked up): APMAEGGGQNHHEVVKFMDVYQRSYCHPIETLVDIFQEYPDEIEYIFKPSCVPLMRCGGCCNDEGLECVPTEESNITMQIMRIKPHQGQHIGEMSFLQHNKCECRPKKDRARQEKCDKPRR
Description: binding ELISA, coated rhVEGF121. On the procedure: Binding to recombinant human VEGF121 is assessed via a solid phase binding ELISA. Briefly, recombinant human VEGF121 (R&D Systems, Minneapolis, Minn., USA) is coated overnight at 4° C. at 1 μg/mL in a 96-well MaxiSorp plate (Nunc, Wiesbaden, Germany). Wells are blocked with a casein solution (1% in PBS).

Test [16] addresses T2, recombinant mouse VEGF164. The experiment in a line: binding ELISA on coated mouse VEGF164. On the procedure:
as §1

B1: VEGFBII021 (VHH)
chain: EVQLVESGGGLVQTGDSLRLSCEVSGRTFSSYSMGWFRQAQGKEREFVVAISKGGYKYDSVSLEGRFTISKDNAKNTVYLQINSLKPEDTAVYYCASSRAYGSSRLRLADTYEYWGQGTQVTVSSGGGGSGGGGSGGGGSGGGGSGGGGSGGGGSGGGGSGGGGSEVQLVESGGGLVQPGGSLRLSCVASGIRFMSMAWYRQAPGKHRELVARISSGGTTAYVDSVKGRFTISRDNSKNTVYLQMNSLKAEDTAVYYCNTFSSRPNPWGAGTQVTVSS
notes: biparatopic bivalent VHH in one chain; also called VEGFBII23B04-40GS-5B05
In general, EC50 refers to the concentration giving half of the maximal effect. The term % inhibition denotes the relative decrease from the control value, in per cent. In general, IC50 refers to the concentration at which inhibition is half-maximal. As a reminder, the kon is the second-order rate constant of association. By koff is commonly meant the rate constant with which the complex falls apart. As usually defined, the Kd is a measure of binding affinity in units of concentration. As for B1, the “% inhibition, VEGF HUVEC proliferation assay” value in the test with VEGF [1] turned out to be 98%. Also, the “IC50 (nM), VEGF HUVEC proliferation assay” value with VEGF [1] came out at 0.4 nM. Moreover, the “% inhibition, VEGF HUVEC Erk phosphorylation assay” value with VEGF [2] is 103%. Also, the “IC50 (nM), VEGF HUVEC Erk phosphorylation assay” value with VEGF [2] worked out at 0.21 nM. The EC50 came to 0.334 nM in test [3] and 0.502 nM in [4]. In addition, the “% inhibition” value was 100% in test [5]; 97% in test [7]; 100% in [8]; 100% in test [9]; 100% in test [10]. Besides, the half-inhibitory concentration (IC50) stood at 0.016 nM in [5]; 0.009 nM in [6]; 0.254 nM in [7]; 0.204 nM in test [8]; 0.012 nM in test [9]; 0.007 nM in test [10]. The binding result with human VEGF-C, with human PIGF, in the test with human VEGF-B and with human VEGF-D was “no binding (tested: 5e-7 M)” each time. The ka2 in test [11] stood at 0.023 s⁻¹. Moreover, the kd2 in test [11] amounted to 0.00019 s⁻¹. The kon in [12] was 1.2e+06 M⁻¹ s⁻¹. Also, the dissociation rate constant (koff) in test [13] was 0.011 s⁻¹. In test [14], the Kd was 0.07 nM.

B2: VEGFBII025 (VHH)
chain: EVQLVESGGGLVQAGGSLRLSCAASGRTFSNYAMGWFRQAPGKERVLVADISSSGINTYVADAVKGRFTISRDNAKNTVYLQMNSLKPEDTAVYYCAASAWWYSQMARDNYRYWGQGTQVTVSSGGGGSGGGGSGGGGSGGGGSGGGGSGGGGSGGGGSGGGGSEVQLVESGGGLVQTGDSLRLSCEVSGRTFSSYSMGWFRQAQGKEREFVVAISKGGYKYDSVSLEGRFTISKDNAKNTVYLQINSLKPEDTAVYYCASSRAYGSSRLRLADTYEYWGQGTQVTVSS
notes: biparatopic bivalent VHH in one chain; also called VEGFBII10E07-40GS-23B04
Regarding B2, the “% inhibition, VEGF HUVEC Erk phosphorylation assay” value with VEGF [2] worked out at 99%. The “IC50 (nM), VEGF HUVEC Erk phosphorylation assay” value with VEGF [2] was determined as 0.23 nM. Further, the EC50 in [15] was determined as 0.475 nM; in test [3], 0.668 nM. Besides, the “% inhibition” value in test [5] is 82%; in [8], 100%; in test [9], 82%; in test [10] it was 100%. Besides, the 50% inhibitory concentration (IC50) in [5] is 0.039 nM; in [6], 0.051 nM; in test [8] it was 0.577 nM; in [9], 0.071 nM; in test [10] it was 0.051 nM. For the same molecule, the binding result in the test with human VEGF-C was “no binding (tested: 5e-7 M)”; with human PIGF it was “no binding (tested: 5e-7 M)”; in the test with human VEGF-B, “no binding (tested: 5e-7 M)”; with human VEGF-D, “no binding (tested: 5e-7 M)”; in test [16], “binds”. The ka2 in test [11] is 0.018 s⁻¹. Besides, the kd2 in test [11] came out at 0.00037 s⁻¹. The kon in [12] is 330000 M⁻¹ s⁻¹. Also, the off-rate constant (koff) in test [13] was 0.017 s⁻¹. In addition, the Kd in test [14] was 1.1 nM.

B3: VEGFBII023 (VHH)
chain: EVQLVESGGGLVQTGDSLRLSCEVSGRTFSSYSMGWFRQAQGKEREFVVAISKGGYKYDSVSLEGRFTISKDNAKNTVYLQINSLKPEDTAVYYCASSRAYGSSRLRLADTYEYWGQGTQVTVSSGGGGSGGGGSGGGGSGGGGSGGGGSGGGGSGGGGSGGGGSEVQLVESGGGLVQAGGSLRLSCAASGRTFSNYAMGWFRQAPGKERVLVADISSSGINTYVADAVKGRFTISRDNAKNTVYLQMNSLKPEDTAVYYCAASAWWYSQMARDNYRYWGQGTQVTVSS
notes: biparatopic bivalent VHH in one chain; also called VEGFBII23B04-40GS-10E07; VEGFBI023
As to B3, the “% inhibition, VEGF HUVEC Erk phosphorylation assay” value with VEGF [2] is 100%. For the same molecule, the “IC50 (nM), VEGF HUVEC Erk phosphorylation assay” value with VEGF [2] came out at 0.25 nM. Moreover, the EC50 in [3] is 0.221 nM. For the same molecule, the “% inhibition” value in test [5] was determined as 91%; in test [8] it was 100%; in [9], 87%; in test [10], 100%. The IC50 in [5] turned out to be 0.044 nM; in test [6], 0.038 nM; in [8], 0.213 nM; in test [9] it was 0.048 nM; in [10] it was 0.046 nM. Moreover, the binding result with human VEGF-C is listed as “no binding (tested: 5e-7 M)”; with human PIGF, “no binding (tested: 5e-7 M)”; with human VEGF-B, “no binding (tested: 5e-7 M)”; with human VEGF-D, “no binding (tested: 5e-7 M)”; in test [16], “binds”. For the same molecule, the ka2 in test [11] is 0.024 s⁻¹. Moreover, in test [11], the kd2 came out at 0.00027 s⁻¹. For the same molecule, in test [12], the kon was 300000 M⁻¹ s⁻¹. The off-rate constant (koff) in [13] amounted to 0.018 s⁻¹. Further, the dissociation constant (Kd) in test [14] turned out to be 0.69 nM.
